The test deals with MepS (E. coli) (UniProt P0AFV4). Put plainly: MST.
Chain of MepS (E. coli) (P0AFV4 27-188): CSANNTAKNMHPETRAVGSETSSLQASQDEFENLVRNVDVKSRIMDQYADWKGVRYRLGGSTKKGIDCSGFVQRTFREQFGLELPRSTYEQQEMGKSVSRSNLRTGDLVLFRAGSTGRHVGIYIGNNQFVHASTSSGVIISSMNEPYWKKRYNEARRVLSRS

For “NlpI (soluble version, residues 19-294) (from UniProt P0AFB1 19-294) (natural protein)”, the Kd (in general, the constant that tells how readily two partners part at equilibrium) is 145 nM.

These data come from doi:10.1101/609503.
